Data from the RNAGym collection of RNA variant scans (doi:10.7554/elife.80360).

B1: HDV Ribozyme (parent)
chain: GGCCGGCAUGGUCCCAGCCUCCUCGCUGGCGCCGGCUGGGCAACAUUCCGAGGGGACCGUCCCCUCGGUAAUGGCGAAUGGGACCCA

Variants of: B1
Test: self-cleavage, relative activity (ratio to wild type); higher = more cleavage; co-transcriptional

| Variant | self-cleavage |
| --- | --- |
| AGCCGGCAUGGUCCCAGCCUCCUCGCUGGCGCCGGCUGGGCAACAUUCCGAAGGGACCGUCCCCUCGGUAAUGGCGAAUGGGACCCA | 0.138 |
| AGCCGGCAUGGUCCCAGCCUCCUCGCUGGCGCCGGCUGGGCAACAUUCCGAGGGGACCGACCCCUCGGUAAUGGCGAAUGGGACCCA | 0.185 |
| AGCCCGCAUGGUCCCAGCCUCCUCGCUGGCGCCGGCUGGGCAACAUUCCGAGGGGACCGUCCCCUCGGUAAUGGCGAAUGGGACCCA | 0 |
| AGCCGCCAUGGUCCCAGCCUCCUCGCUGGCGCCGGCUGGGCAACAUUCCGAGGGGACCGUCCCCUCGGUAAUGGCGAAUGGGACCCA | 0.151 |
| AGCCGUCAUGGUCCCAGCCUCCUCGCUGGCGCCGGCUGGGCAACAUUCCGAGGGGACCGUCCCCUCGGUAAUGGCGAAUGGGACCCA | 0 |
| AGCCGGCAUGGUCCCAGCCUCCUCGCUGGCGCCGACUGGGCAACAUUCCGAGGGGACCGUCCCCUCGGUAAUGGCGAAUGGGACCCA | 0.101 |
| AGCCGGCAUGGUCCCAGCCUCCUCGCUGGCGCCGUCUGGGCAACAUUCCGAGGGGACCGUCCCCUCGGUAAUGGCGAAUGGGACCCA | 0.158 |
| AGCCGGCAUGGUCCCAGCCUCCUCGCUGGCGCCGGCUGGGCAACAUUCCGAGGGGACCGUCCCCUCGGUAAUGGCGAAUGGCACCCA | 0.133 |
| AGCCGGCAUGGUCCCAGCCUCCUCGCUGGCGCCGGCUGGGCAACAUUCCGAGGGGACCGUCCCCUCGGGAAUGGCGAAUGGGACCCA | 0.369 |
| AGCCGGCAUGGUCCCAGCCUCCUCGCUGGCGCCGGCUGGGCAACAUUCCGAGGGGACCGUCCCCUCGGCAAUGGCGAAUGGGACCCA | 0.104 |
| AGCCGGCAUGGUCCCAGCCUCCUCGCUGGCGCCGGCUCGGCAACAUUCCGAGGGGACCGUCCCCUCGGUAAUGGCGAAUGGGACCCA | 0.0405 |
| AGCCGGCAUGGUCCCAGCCUCCUCGCUGGCGCCGGCUGGGCAACAUUCCGAGGGGACCGUCCCCUCGGUAAUGGUGAAUGGGACCCA | 0.0639 |
| AGCCGGCAUGGUCCCAGCCUCCUCGCUGGCGCCGGCUGGGCAACAUUCCGAGGGGACCGUCCCCUCGGUAAUGGCGAAUGGGAGCCA | 0.0978 |
| AGCCGGCAUGGUCCCAGCCUCCUCGCUGGCGCCGGCUGGGCAACAUUCCGAGGGGACCGUCCCCUCGGUAAUGGCGAAUGGGAACCA | 0 |
| AGCCGGCAUGGUCCCAGCCUCCUCGCUGGCGCCGGCUGGGCAACAUUCCGAGGGGACCGUCCCCUCGGUAAUGGCGAAUGGGAUCCA | 0.229 |
| AGCCGGCAUGGUCCCAGCCUCCUCGCUGGCGCCGGCUGGGCAACAUUCCGAGGGGACCGUCCCCUCGGUAAUGUCGAAUGGGACCCA | 0.0563 |
| AGCCGGCAUGGUCCCAGCCUCCUCGCUGGCGCCGGCUGGGCAACAUUCCGAGGGGACCGUCCCCUCGGUAAUGCCGAAUGGGACCCA | 0 |
| AGCCGGCAUGGUCCCAGCCUCCUCGCUGCCGCCGGCUGGGCAACAUUCCGAGGGGACCGUCCCCUCGGUAAUGGCGAAUGGGACCCA | 0.181 |
| AGCCGGCAUGGUCCCAGCCUCCUCGCUGGCGCCGGCUGGGCAACAUUCCGAGGGGACCGUCCCCCCGGUAAUGGCGAAUGGGACCCA | 0.0875 |
| AGCCGGCAUGGUCCCAGCCUCCUCGCUGGCGCCGGCUGGGCAACAUUCCGAGGGGACCGUCCCCUUGGUAAUGGCGAAUGGGACCCA | 0.353 |
| AGCCGGCAUGGUCCCAGCCUCCUCGCAGGCGCCGGCUGGGCAACAUUCCGAGGGGACCGUCCCCUCGGUAAUGGCGAAUGGGACCCA | 0 |
| AGCCGGCAUGGUCCCAGCCUCCUCGCCGGCGCCGGCUGGGCAACAUUCCGAGGGGACCGUCCCCUCGGUAAUGGCGAAUGGGACCCA | 0.119 |

| Variant | self-cleavage |
| --- | --- |
| AGCCGGCAUGGUCCCAGCCUCCUCGCUGGCGCCGGCUGGGCAACAUUCCGAGGGGACCGUCCCCUCGGUAAUGGCGAAUGGGACGCA | 0.101 |
| AGCCGGCAUGGUCCCAGCCUCCUCGCUGGCGCCGGCUGGGCAACAUUCCGAGGGGACCGUCCCCUCGGUAAUGGCGAAUGGGACUCA | 0.0755 |
| AGCCGGCAUGGUCCCAGCCUCCUCGCUGGCGCCGGCUGGGCAACAUUCCGAGGGGACCGUCCCCUCGGUAAUGGCGAAUCGGACCCA | 0.119 |
| AGCCGGCAUGGUCCCAGCCUCCUCACUGGCGCCGGCUGGGCAACAUUCCGAGGGGACCGUCCCCUCGGUAAUGGCGAAUGGGACCCA | 0.0739 |
| AGCCGGCAUGGUCCCAGCCUCCUCUCUGGCGCCGGCUGGGCAACAUUCCGAGGGGACCGUCCCCUCGGUAAUGGCGAAUGGGACCCA | 0.0462 |
| AGCCGGCAUGGUCCCAGCCUCCUCGCUGGCGCCGGCUGGGCAACAUUCCGAGGGGACCGUCCCAUCGGUAAUGGCGAAUGGGACCCA | 0.131 |
| AGCCGGCAUGGUCCCAGCCUCCUCGCUGGCGCCGGCUGGGCAACAUUCCGAGGGGACCGUCCCUUCGGUAAUGGCGAAUGGGACCCA | 0.101 |
| AGCCGGCAUGGUCCCAGCCUCCUCGCUGGCGCCGGCUGGGCAACAUUCCGAGGGGACCGUCCCCUCGGUAAUCGCGAAUGGGACCCA | 0.0739 |
| AGCCGGCAUGGUCCCAGCCUCCUCGCUGGCGCCGGCUGCGCAACAUUCCGAGGGGACCGUCCCCUCGGUAAUGGCGAAUGGGACCCA | 0 |
| AGCCGGCAUGGUCCCAACCUCCUCGCUGGCGCCGGCUGGGCAACAUUCCGAGGGGACCGUCCCCUCGGUAAUGGCGAAUGGGACCCA | 0.0811 |
| AGCCGGCAUGGUCCCAGCCUCCUCGCUGGCGCCGGCUGGGCAACAUUCCGAGGGGACCGUCCCCUCGAUAAUGGCGAAUGGGACCCA | 0.101 |
| AGCCGGCAUGGUCCCAGCCUCCUCGCUGGCGCCGGCUGGGCAACAUUCCGAGGGGACCGUCCCCUCGCUAAUGGCGAAUGGGACCCA | 0.0978 |
| AGCCGGCAUGGUCCCAGCCUCCUCGCUGGCGCCGGCUGGGCAACAUUCCGAGGGGACCGUCCCCUCCGUAAUGGCGAAUGGGACCCA | 0 |
| AGCCGGCAUGGUCCCAGCCUCCUCGCUGGCGCCGGCUGGGCAACAUUCCGAGGGGACCGUCCCCUCAGUAAUGGCGAAUGGGACCCA | 0.0665 |
| AUCCGGCAUGGUCCCAGCCUCCUCGCUGGCGCCGGCUGGGCAACAUUCCGAGGGGACCGUCCCCUCGGUAAUGGCGAAUGGGACCCA | 0.852 |
| AGCCGGCAUGGUCCCAGCCUCCUCGCUGGCGCCGGCUGGGCAACAUACCGAGGGGACCGUCCCCUCGGUAAUGGCGAAUGGGACCCA | 0.145 |
| AGCCGGCAUGGUCCCAGCCUCCUCGCUGGCGCCGGCUGGGCAACAUGCCGAGGGGACCGUCCCCUCGGUAAUGGCGAAUGGGACCCA | 0 |
| AGCCGGCAUGGUCCCAGCCUCCUCGCUGGCGCCGGCUGGGCAACAUCCCGAGGGGACCGUCCCCUCGGUAAUGGCGAAUGGGACCCA | 0.128 |
| AGCCGGCAUGGUCCCAGCCUCCUCGCUGGCGCCGGCAGGGCAACAUUCCGAGGGGACCGUCCCCUCGGUAAUGGCGAAUGGGACCCA | 0.161 |
| AGCCGGCAUGGUCCCAGCCUCCUCGCUGGCGCCGGCUGGGCAACAUUCCAAGGGGACCGUCCCCUCGGUAAUGGCGAAUGGGACCCA | 0 |
| AGCCGGCAUGGUCCCAGCCUCCUCGCUAGCGCCGGCUGGGCAACAUUCCGAGGGGACCGUCCCCUCGGUAAUGGCGAAUGGGACCCA | 0.0332 |
| AGCCGGCAUGGUCCCAGCCUCCUCGCUGGCGCCGGCUGGGCAACAGUCCGAGGGGACCGUCCCCUCGGUAAUGGCGAAUGGGACCCA | 0.138 |

| Variant | self-cleavage |
| --- | --- |
| AGCCGGCAUGGUCCCAGCCUCCUCGCUGGCGCCGGCUGGGCAACAAUCCGAGGGGACCGUCCCCUCGGUAAUGGCGAAUGGGACCCA | 0.0755 |
| AGCCGGCAUGGUCCCAGCCUCCCCGCUGGCGCCGGCUGGGCAACAUUCCGAGGGGACCGUCCCCUCGGUAAUGGCGAAUGGGACCCA | 0 |
| AGCCGGCAUGGUCCCAGCCUCCUCGCUGGCGCCAGCUGGGCAACAUUCCGAGGGGACCGUCCCCUCGGUAAUGGCGAAUGGGACCCA | 0.136 |
| AGCCGGCAUGGUCCCAGCCUCCUCGCUGGCGCCCGCUGGGCAACAUUCCGAGGGGACCGUCCCCUCGGUAAUGGCGAAUGGGACCCA | 0 |
| AGCCGGCAUGGUCCCAGCCUCCUCGCUGGCGCCGGCUGGGCAACAUUCCGAGGGGACCGUCCCCUCGGUAAUGGCGAAUGAGACCCA | 0.0462 |
| AGCCGGCAUGAUCCCAGCCUCCUCGCUGGCGCCGGCUGGGCAACAUUCCGAGGGGACCGUCCCCUCGGUAAUGGCGAAUGGGACCCA | 0.0779 |
| AGCCGGCAUGUUCCCAGCCUCCUCGCUGGCGCCGGCUGGGCAACAUUCCGAGGGGACCGUCCCCUCGGUAAUGGCGAAUGGGACCCA | 0.0992 |
| AGCCGGCAUGGUCCCAGCCGCCUCGCUGGCGCCGGCUGGGCAACAUUCCGAGGGGACCGUCCCCUCGGUAAUGGCGAAUGGGACCCA | 0 |
| AGCCGGCAUCGUCCCAGCCUCCUCGCUGGCGCCGGCUGGGCAACAUUCCGAGGGGACCGUCCCCUCGGUAAUGGCGAAUGGGACCCA | 0.35 |
| AGCCGGCAUUGUCCCAGCCUCCUCGCUGGCGCCGGCUGGGCAACAUUCCGAGGGGACCGUCCCCUCGGUAAUGGCGAAUGGGACCCA | 0.153 |
| AGCCGGCAUAGUCCCAGCCUCCUCGCUGGCGCCGGCUGGGCAACAUUCCGAGGGGACCGUCCCCUCGGUAAUGGCGAAUGGGACCCA | 0.151 |
| AGCCGGCAUGGUCCCAGCCUCCUCGCUGGCACCGGCUGGGCAACAUUCCGAGGGGACCGUCCCCUCGGUAAUGGCGAAUGGGACCCA | 0.131 |
| AGCCGGCAUGGUCCCAGCCUCCUCGCUGGCCCCGGCUGGGCAACAUUCCGAGGGGACCGUCCCCUCGGUAAUGGCGAAUGGGACCCA | 0.0292 |
| AGCCGGCAUGGUCCCAGCCUCCUCGCUGGCUCCGGCUGGGCAACAUUCCGAGGGGACCGUCCCCUCGGUAAUGGCGAAUGGGACCCA | 0 |
| AGCCGGCAUGGUCCCAGCCUCCUCGCUGGCGCCGGCUGGGCAACAUUCCGAGGGGACCGUCCCCUCGGUAAUGGCAAAUGGGACCCA | 0.462 |
| AGCCGGCAUGGUCCCAGCCUCCUCGCUGGCGCCGGCUGGGCAACAUUCCGAGGGGACCGUCCCCUCGGUAAUGGCCAAUGGGACCCA | 0.185 |
| AGCCGGCAUGGUCCCAGCCUCCUCGCUGGCGCCGGCUGGGCAACAUUCCGAGGGGACCGUCCCCUCGGUAAUGGCUAAUGGGACCCA | 0.185 |
| AGCCGGCAUGGUCCCAGCCUCCUCGCUGGCGCCGGCUGGGCAACAUUCCGAGGGAACCGUCCCCUCGGUAAUGGCGAAUGGGACCCA | 0.0519 |
| AGCCGGCAUGGUCCCAGCCUCCUCGCUGGCGCCGGCUGGGCAACAUUCCGAGGGCACCGUCCCCUCGGUAAUGGCGAAUGGGACCCA | 0.115 |
| AGCCGGCAUGGACCCAGCCUCCUCGCUGGCGCCGGCUGGGCAACAUUCCGAGGGGACCGUCCCCUCGGUAAUGGCGAAUGGGACCCA | 0.0415 |
